Target: T1, Pa-aIF2γ (γ-subunit of archaeal translation initiation factor 2 from Pyrococcus abyssi), native version (Pyrococcus abyssi, UniProt Q9V1G0 1-411)
T1 construct: aIF2 γ-subunit from Pyrococcus abyssi, native (untagged) version; Stood in the assay as part of the aIF2 heterotrimer with GDPNP and Met-tRNA; The deposited models use the S. solfataricus ternary complex (PDB 3V11) as the fitted component; source: cells overproducing the subunit, mixed with cells overproducing α and β; heterotrimer purified (heating at 80 °C, Q-Hiload, S-Hiload, Superdex 200)
T1 sequence (looked up): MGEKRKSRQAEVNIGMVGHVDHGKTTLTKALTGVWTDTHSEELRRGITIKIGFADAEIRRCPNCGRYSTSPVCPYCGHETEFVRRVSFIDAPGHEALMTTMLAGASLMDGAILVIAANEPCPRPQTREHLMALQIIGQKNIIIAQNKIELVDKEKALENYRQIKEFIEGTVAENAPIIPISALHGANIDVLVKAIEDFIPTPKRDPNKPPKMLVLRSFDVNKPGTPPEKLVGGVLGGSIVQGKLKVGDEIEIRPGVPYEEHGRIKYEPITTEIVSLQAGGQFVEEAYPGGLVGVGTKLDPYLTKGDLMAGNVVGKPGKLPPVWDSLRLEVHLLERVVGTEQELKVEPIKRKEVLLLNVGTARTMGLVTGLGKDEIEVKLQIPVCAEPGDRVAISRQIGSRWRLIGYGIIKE
Assay: cryo-EM structure; full 30S initiation complex (Pa-30S, synthetic mRNA, Met-tRNAfMet A1-U72, GDPNP, Pa-aIF1, Pa-aIF1A, Pa-aIF2) assembled at 51 °C in IC buffer (10 mM Hepes pH 7.5, 100 mM NH4Cl, 10 mM magnesium acetate, 3 mM 2-mercaptoethanol), purified on Talon; class IC0-P_(REMOTE), tRNA out of the P site, 5.34 Å overall resolution; known structures of homologous components fitted
Details: both partners purified

binding result: binds
B1: Pa-aIF2α (α-subunit of archaeal translation initiation factor 2 from Pyrococcus abyssi), N-terminally tagged version (natural protein, UniProt Q9V0E4 1-275, looked up)
chain: MPRRAREYPEEGEFVVATVKRIHNYGAFLELDEYPGKEAFMHISEVASTWVRNIRDYLKEGQKVVAKVIRVDPRKGHIDLSLRRVTQQQRKAKLQEFKRAQKAENLLKLAAEKLGKDFETAWREVWVPLEEEWGEVYAAFEDAAKDGIDVLKGHVPDEWLPVLKEIIDNYVEVPTVTIDAEFEITVPKPNGVEIIKEALIRARDRANKEKDVEVKFTYLGAPRYRIDITAPDYYKAEEVLESIAEEILRVIKEAGGEATLLRKEKRIKKVKKRKK
notes: aIF2 α-subunit from Pyrococcus abyssi, N-terminally tagged version; domains 1 and 2 (aIF2α-D12) and domain 3 (aIF2α-D3); the complex was purified on a Talon column by it; Stood in the assay as part of the aIF2 heterotrimer; source: cells overproducing the subunit, mixed with cells overproducing β and γ; heterotrimer purified (heating at 80 °C, Q-Hiload, S-Hiload, Superdex 200)

Source: paper PMC5103072, “Cryo-EM study of start codon selection during archaeal translation initiation” (Nature Communications, 2016)
